Where a chain is given by its changes, count along the chain named.
B1: RA460 (nucleic acid)
DNA: GCGCGTCCTGGATTCGCAGTGATACCAGCATCGTCTTGATGCCCTTGGCAGCACTGGAAACGCGTACATCCAGCTGACGAGTCCCAAATAGGACGAAACGCGC
modifications: expressed or natural sequence
B2: RA453 (nucleic acid)
DNA: GCGCGTCCTGGATTCGCGGAAACGCGTACATCCAGCTGACGAGTCCCAAATAGGACGAAACAGAATACCAGCATCGTCTTGATGCCCTTGGAAGTCTGCGC
modifications: expressed or natural sequence
B3: RA461 (nucleic acid)
DNA: GCGCGTCCTGGATTCGCGGAAACGCGTACATCCAGGAGAATACCAGCATCGTCTTGATGCCCTTGGAAGTCTCCTGACGAGTCCCAAATAGGACGAAACGCGC
modifications: expressed or natural sequence
B4: RA463 (nucleic acid)
DNA: GCGCGTCCTGGATTCGCGGAAACGCGTACATCCAGCTGACGAGTCGAGAATACCAGCATCGTCTTGATGCCCTTGGAAGTCTCGCCCAAATAGGACGAAACGCGC
modifications: expressed or natural sequence
B5: RA445 (nucleic acid)
DNA: GCGCGTCGAGAATACCAGCATCGTCTTGATGCCCTTGGAAGTCTCCTGGATTCGCGGAAACGCGTACATCCAGCTGACGAGTCCCAAATAGGACGAAACGCGC
modifications: expressed or natural sequence
B6: RA451 (nucleic acid)
DNA: GCGCGTCCTGGATTCGCGGAAGAATACCAGCATCGTCTTGATGCCCTTGGAAGTCTAACGCGTACATCCAGCTGACGAGTCCCAAATAGGACGAAACGCGC
modifications: expressed or natural sequence
B7: RA446 (nucleic acid)
DNA: GCGCGTCCTGGATTCCGGAATACCAGCATCGTCTTGATGCCCTTGGAAGTCCGGCGGAAACGCGTACATCCAGCTGACGAGTCCCAAATAGGACGAAACGCGC
modifications: expressed or natural sequence
B8: RA441 (nucleic acid)
DNA: GCGCCCGGAATACCAGCATCGTCTTGATGCCCTTGGAAGTCCGGGTCCTGGATTCGCGGAAACGCGTACATCCAGCTGACGAGTCCCAAATAGGACGAAACGCGC
modifications: expressed or natural sequence
B9: RA459 (nucleic acid)
DNA: GCGCGTCCTGGATTCGCGGAAACGCGTACATCCAGCTGACGAGTCCCAAATAGGACGAAGGAATACCAGCATCGTCTTGATGCCCTTGGAAGTCCACGCGC
modifications: expressed or natural sequence
B10: RA448 (nucleic acid)
DNA: GCGCGCGGAATACCAGCATCGTCTTGATGCCCTTGGAAGTCCGTCCTGGATTCGCGGAAACGCGTACATCCAGCTGACGAGTCCCAAATAGGACGAAACGCGC
modifications: expressed or natural sequence
B11: RA462 (nucleic acid)
DNA: GCGCGTCCTGGATTCGCGCCGGAATACCAGCATCGTCTTGATGCCCTTGGAAGTCCGGGAAACGCGTACATCCAGCTGACGAGTCCCAAATAGGACGAAACGCGC
modifications: expressed or natural sequence
B12: RA456 (nucleic acid)
DNA: GCGCGTCCTGGATTCGCGGAAACGCGTACATCCAGCTGACGAGTCCCAAATACCGGAATACCAGCATCGTCTTGATGCCCTTGGAAGTCCGGGGACGAAACGCGC
modifications: expressed or natural sequence
B13: RA447 (nucleic acid)
DNA: GCGCGTCCTGGATTCGCGGAAACGCGTACATCCAGCTGACGAGTCCGGAATACCAGCATCGTCTTGATGCCCTTGGAAGTCCCAAATAGGACGAAACGCGC
modifications: expressed or natural sequence
B14: RA454 (nucleic acid)
DNA: B13 DNA with G47A, C82T
modifications: expressed or natural sequence
B15: RA455 (nucleic acid)
DNA: GCGCGTCCTGGATTCGCGGAAACGCGTACATCCAGCTGACGAGTCCCCGGAATACCAGCATCGTCTTGATGCCCTTGGAAGTCCGGCAAATAGGACGAAACGCGC
modifications: expressed or natural sequence
B16: RA452 (nucleic acid)
DNA: GCGCGTCCTGGAGAATACCAGCATCGTCTTGATGCCCTTGGAAGTCTATTCGCGGAAACGCGTACATCCAGCTGACGAGTCCCAAATAGGACGAAACGCGC
modifications: expressed or natural sequence
B17: RA442 (nucleic acid)
DNA: GCGCGTCCTGGATTCGCGGAAACGCGTACATCCGGAATACCAGCATCGTCTTGATGCCCTTGGAAGTCCGCAGCTGACGAGTCCCAAATAGGACGAAACGCGC
modifications: expressed or natural sequence
B18: RA443 (nucleic acid)
DNA: GCGCGTCCTGGATTCGCGGAAACGCGTACATCCAGCTGACGAGTCCCAAATAGGACGGAATACCAGCATCGTCTTGATGCCCTTGGAAGTCCGCGAAACGCGC
modifications: expressed or natural sequence
B19: RA457 (nucleic acid)
DNA: GCGCGTCCTGGATTCGCGGAAACGCGTACATCCAGCTGACGAGTCCCAAATAGGACGAAGTGATACCAGCATCGTCTTGATGCCCTTGGCAGCACTAACGCGC
modifications: expressed or natural sequence
B20: RA449 (nucleic acid)
DNA: GCGCGTCCTGGATTCGCGGAAACGCGTACATCCAGCTGACGAGTCCCAAATAGGACGAAACGCGAGTGATACCAGCATCGTCTTGATGCCCTTGGCAGCACTC
modifications: expressed or natural sequence
B21: RA458 (nucleic acid)
DNA: GCGCGTCCTGGATTCGCGGAAACGCGTACATCCAGCTGACGAGTCCCAAATAGGACGAACCGGAATACCAGCATCGTCTTGATGCCCTTGGAAGTCCGGACGCGC
modifications: expressed or natural sequence
B22: RA444 (nucleic acid)
DNA: GCGCGTCCCGGAATACCAGCATCGTCTTGATGCCCTTGGAAGTCCGGCTGGATTCGCGGAAACGCGTACATCCAGCTGACGAGTCCCAAATAGGACGAAACGCGC
modifications: expressed or natural sequence
B23: RA450 (nucleic acid)
DNA: GCGCGTCCTGGATTCGCGGAAACGCGTACATCCAGCTGACGAGTCCCAAATAGGACGAAACCCGGAATACCAGCATCGTCTTGATGCCCTTGGAAGTCCGGGCGC
modifications: expressed or natural sequence
B24: RA440 (nucleic acid)
DNA: GCGCGTCCTGGATTCGCGGAAACGCGTACATCCAGCTGACGAGTCCCAAATAGGACGAAACGCCGGAATACCAGCATCGTCTTGATGCCCTTGGAAGTCCGGC
modifications: expressed or natural sequence
B25: RA439 (nucleic acid)
DNA: GCGCGTGAGAATACCAGCATCGTCTTGATGCCCTTGGAAGTCTCCCTGGATTCGCGGAAACGCGTACATCCAGCTGACGAGTCCCAAATAGGACGAAACGCGC
modifications: expressed or natural sequence
B26: RA044 (nucleic acid)
DNA: GCGGAGAATACCAGCATCGTCTTGATGCCCTTGGAAGTCTCCGTCCTGGATTCGCGGAAACGCGTACATCCAGCTGACGAGTCCCAAATAGGACGAAACGCGC
modifications: expressed or natural sequence
B27: RA045 (nucleic acid)
DNA: GAGAATACCAGCATCGTCTTGATGCCCTTGGAAGTCTCGCGCGTCCTGGATTCGCGGAAACGCGTACATCCAGCTGACGAGTCCCAAATAGGACGAAACGCGC
modifications: expressed or natural sequence
B28: RA043 (nucleic acid)
DNA: GCGCGTCCTCGAGAATACCAGCATCGTCTTGATGCCCTTGGAAGTCTCGGGATTCGCGGAAACGCGTACATCCAGCTGACGAGTCCCAAATAGGACGAAACGCGC
modifications: expressed or natural sequence

The molecules below were run on Renilla luciferase RNA (assay: Barcoded aptazyme variant library screen: un-cleaved Renilla luciferase RNA by barcode read counts, HEK293-T cells). Conditions: un-cleaved Renilla luciferase RNA by barcode read counts; with 1 mM theophylline (ON) over without theophylline (OFF); HEK293-T cells; triplicate.
Assay type: cell-based
In short: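 Aptazyme variants (seven theophylline aptamers inserted after each T3H48 ribozyme nucleotide, 9-nt barcoded) cloned into the 3′ UTR of Renilla luciferase in psiCHECK-2; cells cultured ± theophylline, in triplicate. RNA and DNA barcodes amplified and sequenced; normalized read counts gave un-cleaved RNA fraction and ON/OFF fold-change.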

Row | Molecule | Fold change in RNA expression between the ON state and the OFF state
1 | B1 | 0.5
2 | B2 | 0.5
3 | B3 | 0.5
4 | B4 | 0.4
5 | B5 | 0.5
6 | B6 | 0.5
7 | B7 | 0.5
8 | B8 | 0.6
9 | B9 | 0.5
10 | B10 | 0.5
11 | B11 | 0.4
12 | B12 | 0.5
13 | B13 | 0.5
14 | B14 | 0.5
15 | B15 | 0.5
16 | B16 | 0.5
17 | B17 | 0.6
18 | B18 | 0.6
19 | B19 | 0.5
20 | B20 | 0.5
21 | B21 | 0.5
22 | B22 | 0.6
23 | B23 | 0.5
24 | B24 | 0.6
25 | B25 | 0.6

Same assay, conditions: un-cleaved Renilla luciferase RNA, HEK293-T cells cultured with 1 mM theophylline (ON) over without theophylline (OFF); barcode read counts, triplicate

Row | Molecule | Fold change in RNA expression between the ON state and the OFF state
26 | B26 | 2.1 fold
27 | B27 | 2.0 fold
28 | B28 | 2.1 fold

Source: patent US20260167959A1, “APTAZYME-BASED REGULATABLE GENE EXPRESSION SYSTEMS” (REJUVENATE BIO INC, priority 2022, published 2026)
